By Kd is commonly meant the concentration at which binding is half-saturated. The term koff denotes the first-order rate constant of dissociation. The term kon denotes a measure of how fast the partners come together.

Positions count from the first letter of the chain named.

B1: aNRP2-400v2 (antibody, V domains shown)
VH: EVQLQESGAELARPGASVKLSCKASGYTFRSYGISWVKQRTGQGLEWIGEIYPRSGNTYYDENFKGRATLTADKSSSTAFMELRSLTSEDSAVYFCARSSITAVVAIPYYYAMDYWGQGTSVTVSS
VL: DIQMTQTTSSLSASLGDRVTISCSASQGISNYLNWYQQKPDGSVKLLIYYTSSLHSGVPSRFSGSGSGTDYSLTISNLEPEDIATYYCQQYSKLPHTFGGGTKLELK
B2: aNRP2-37v2 (antibody, V domains shown)
VH: DVKLVESGEGLVKPGGSLKLSCAASGFTFSDYALSWVRQTPEKRLEWVAYISSGGDYIYYADTVRGRFTISRDNARNTLYLQMSSLQSEDTAIYYCTRGGQDDYWGQGTTLTVSS
VL: DVVMTQTPLSLPVILGDQASISCRSSQSLVHSNGNTYLQWYLQKPGQSPKLLIYKVSNRFSGVPDRFSGSGSGTDFTLKISRVEAEDLGVYFCSQSTHVPFTFGSGTNLEIK
B3: aNRP2-403v2 (antibody, V domains shown)
VH: QVQLQQPGAELVKPGASVKLSCKASGYTFTSYWMHWVKQRPGRGLEWIGRIDPNSGDTKYNEKFKSKATLTVDKPSSTAYMQVSSLTSEDSAVYYCARSYDYALEYWGQGTSVTVSS
VL: B2 VL with I14S, Q39H, Y41F, K50N, S96N, H98R, F101R, S105G, N108K
B4: aNRP2-407v2 (antibody, V domains shown)
VH: EVQLQQSGPELVKPGASVTISCKASGYSFTGYYMHWVKQSHVKSLEWIGRINPYNGATSYSQNFKDKASLTIDKSSSTAYMELHSLTSEDSAVYYCAREETTAPFTYWGQGTLVTVSA
VL: DIVMSQSPSSLAVSVGEKVTMSCKSSQSLLYSSNQKNYLAWYQQKPGQSPKLLIYWASTRESGVPDRFTGSGSGTDFTLTISSVQAEDLAVYFCQHYYSYPPTFGGGTKLEIK
B5: aNRP2-401v2 (antibody, V domains shown)
VH: EVQLQESGGGLVKPGGSLKLSCAASGFTFSDYGMHWVRQAPEKGLEWVATISRDINTVYYADTVKGRFTISRDNAKNTLFLQVTSLRSEDTAMYYCTRGGYTDYWGQGTTLTVSS
VL: DIVMTQTPLSLPVSLGDQASISCRSSQSLVHSNGNTYLYWYLQRPGQSPKLLIYKVSNRFSGVPDRFSGSGSGTDFTLKISRVEAEDLGVYFCSQSTHVLTFGGGTKLEIK
B6: aNRP2-405v2 (antibody, V domains shown)
VH: EVMLVESGGGLVKPGGSLKLSCAASGFTFRRYAMSWVRQTPEKGLEWVATITSGGSYTYYLDSVKGRITISRDNAKNTLYLQMSSLRSEDTAMYYCARHGIYGGFDYWGQGTTLTVSS
VL: DVLMTQTPLSLPVSLGDQASISCRSSQSIVHSDGNTYLEWYLQKPGQSPNLLIYKVSNRFSGVPDRFSGSGSGTDFTLKISRVEAEDLGIYYCFQGSHVPFTFGSGTKLEIK
B7: aNRP2-408v2 (antibody, V domains shown)
VH: EVKLVESGGGLVKPGGSLKLSCAASGFTFSSYAMSWVRQTPEKRLEWVASISRGSITYYPDSVKGRFTISRDNAGNILYLQMSSLRSEDTAMYYCAREYYYAMDYWGQGTSVTVSS
VL: DIQMTQSPSSLSASLGERVSLTCRASQDIGSRLNWLQQEPDGTIKRLIYATSSLDSGVPKRFSGSRSGSDYSLTISSLESEDFVDYYCLQYASSPYTFGGGTKLEIK
B8: aNRP2-409v3 (antibody, V domains shown)
VH: EVQFVETGGGLVQPKGSLKLSCAASGFTFNTNAMNWVRQAPGKGLEWVARIRTKSNNYATYYADSVKDRFTISRDDSQNILYLQMNNLKTEDTAMYYCVTLDSSGYVWFAYWGQGTLVTVSA
VL: B7 VL
B9: aNRP2-401v5 (antibody, V domains shown)
VH: EVQLVESGGGLVQPGGSLRLSCAASGFTFSDYGMHWVRQAPGKGLEWVSTISRDINTVYYADTVKGRFTISRDNAKNSLYLQMNSLRAEDTAVYYCARGGYTDYWGQGTTVTVSS
VL: B5 VL with P12S, S14T, L15P, D17Q, Q18P, R44K, K50Q, L88V, F92Y, L108V
B10: aNRP2-401v6 (antibody, V domains shown)
VH: B9 VH
VL: DIVMTQTPLSLSVTPGQPASISCRSSQSLVHSNGNTYLYWYLQKPGQSPQLLIYKVSNRFSGVPDRFSGSGSGTDFTLKISRVEAEDVGVYYCAQSTHPLTFGGGTKVEIK
B11: aNRP2-401v8 (antibody, V domains shown)
VH: B9 VH with N56Q
VL: B10 VL
B12: aNRP2-401v7 (antibody, V domains shown)
VH: B9 VH with D54S
VL: B10 VL

For one test, the target named is recombinant NRP2 isoform a (human) (UniProt O60462). Kind of test: BLI, antibody captured by anti-mouse kappa, NRP2a titrated 0.62-450 nM, 1:1 fit. (In general: In BLI a coated tip is dipped into the sample, and binding shifts an interference pattern.)
Consider B1, for which the Kd was 0.453 nM.

B2: the Kd came to 0.767 nM.

With B3, the dissociation constant Kd is 1.4 nM.

In the case of B4, the Kd turned out to be 0.352 nM.

For B5, the Kd amounted to 0.136 nM.

As for B6, the Kd came out at 0.48 nM.

Consider B7, for which the Kd was determined as 2.1 nM.

Consider B8, for which the Kd stood at 2.23 nM.

The target is the same in a further test. Kind of test: BLI (Octet RED96e).
For the molecule B9, the Kd was found to be 0.391 nM, the koff was 0.000293 s⁻¹ and the kon came out at 748000 M⁻¹ s⁻¹.

Turning to B10, the Kd turned out to be 0.162 nM, the koff was 0.000162 s⁻¹ and the kon came out at 999000 M⁻¹ s⁻¹.

On to B11, for which the Kd turned out to be 0.0989 nM, the koff was 0.00012 s⁻¹ and the kon was found to be 1.21e+06 M⁻¹ s⁻¹.

On to B12, for which the Kd was found to be 0.141 nM, the koff was 0.000173 s⁻¹ and the kon is 1.23e+06 M⁻¹ s⁻¹.

These data come from patent publication US20240417476A1.
